Measurements from US20220251236A1 (Boehringer Ingelheim, published 2022).

Key:
EGF4+5 = target: T1, EGF4+5; assay: flow cytometry on HEK293 cells expressing the DLL3 subdomain construct, PE anti-human secondary, control: secondary antibody only
T1 construct: also called Hu DLL3 EGF4+5 on HEK293 cells
T1 membrane-anchored DLL3 subdomain construct: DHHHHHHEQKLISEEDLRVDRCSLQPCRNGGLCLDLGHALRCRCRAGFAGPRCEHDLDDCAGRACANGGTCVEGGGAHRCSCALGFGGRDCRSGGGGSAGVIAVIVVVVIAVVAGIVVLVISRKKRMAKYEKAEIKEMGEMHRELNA
Method in brief: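 Binders tested on HEK293 cells displaying the DLL3 subdomain construct; bound molecules detected by flow cytometry using PE-conjugated anti-human secondary antibody. Negative control: cells with secondary antibody only.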

Human CD3 E+G HuFc-6xHis = target: T2, Human CD3 E+G HuFc-6xHis (human); assay: SPR (ProteOn XPR36), HuCD3E_HuCD3G-Fc amine-coupled, bispecific as analyte, Example 4B
T2 construct: also called hu CD3εγ-Fc
T2 sequence (chain, as listed by the source limits assumed): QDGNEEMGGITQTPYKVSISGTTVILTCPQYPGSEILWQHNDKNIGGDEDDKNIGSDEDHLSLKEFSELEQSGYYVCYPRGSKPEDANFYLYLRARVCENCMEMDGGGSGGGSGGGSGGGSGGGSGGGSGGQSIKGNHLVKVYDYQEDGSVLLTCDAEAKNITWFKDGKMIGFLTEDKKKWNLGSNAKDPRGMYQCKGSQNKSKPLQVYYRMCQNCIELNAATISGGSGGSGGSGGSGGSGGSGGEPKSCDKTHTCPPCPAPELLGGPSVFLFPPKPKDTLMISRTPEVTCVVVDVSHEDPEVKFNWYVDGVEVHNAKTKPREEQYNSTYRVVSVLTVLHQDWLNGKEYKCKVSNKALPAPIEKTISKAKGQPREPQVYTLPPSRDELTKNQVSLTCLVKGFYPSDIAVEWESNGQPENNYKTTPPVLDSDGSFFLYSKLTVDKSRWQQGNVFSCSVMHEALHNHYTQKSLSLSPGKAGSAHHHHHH
Method in brief: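 SPR kinetics with the bispecific constructs flowed as analyte over a directly amine-coupled (pH 4.5 acetate) human CD3εγ-Fc surface. Association runs 600 s and dissociation 1800 s, at 30 μl/min in PBS-T-EDTA.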

[1] = target: T3, FLAG-tagged human DLL4 full length (human, UniProt Q9NR61 1-685); assay: flow cytometry on HEK293 cells expressing human DLL4 (HEK293-huDLL4), PE anti-human secondary, control: secondary antibody only
T3 construct: also called human DLL4 on HEK293 cells
T3 sequence (Q9NR61 other isoform, or with tags, fused parts or gaps limits assumed): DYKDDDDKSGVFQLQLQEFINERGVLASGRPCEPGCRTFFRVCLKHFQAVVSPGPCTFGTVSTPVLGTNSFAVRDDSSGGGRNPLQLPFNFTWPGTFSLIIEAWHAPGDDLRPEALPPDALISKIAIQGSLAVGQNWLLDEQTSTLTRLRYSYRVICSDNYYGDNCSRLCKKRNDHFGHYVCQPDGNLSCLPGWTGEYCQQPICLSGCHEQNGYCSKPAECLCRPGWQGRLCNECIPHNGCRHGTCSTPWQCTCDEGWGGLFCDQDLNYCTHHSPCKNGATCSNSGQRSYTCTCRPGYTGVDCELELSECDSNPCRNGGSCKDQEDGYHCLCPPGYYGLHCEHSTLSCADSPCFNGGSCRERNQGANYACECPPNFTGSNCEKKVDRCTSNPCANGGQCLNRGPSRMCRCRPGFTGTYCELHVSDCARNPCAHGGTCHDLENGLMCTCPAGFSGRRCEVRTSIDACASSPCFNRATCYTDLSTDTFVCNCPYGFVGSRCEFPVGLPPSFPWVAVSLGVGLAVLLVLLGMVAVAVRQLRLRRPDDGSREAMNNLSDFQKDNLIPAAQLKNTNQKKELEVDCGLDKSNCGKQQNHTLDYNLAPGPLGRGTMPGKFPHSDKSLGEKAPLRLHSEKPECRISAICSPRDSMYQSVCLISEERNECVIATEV
Description: (§1) Bound molecules were detected with PE-conjugated anti-human secondary antibody (Sigma-Aldrich, #P8047). As negative control, cells were incubated with secondary antibody only. The samples were measured by flow-cytometry.

[2] = target: T4, trypsin inhibitor from glycine max soybean (Glycine max (soybean)); assay: SPR (Biacore T200), trypsin inhibitor on CM5 chip, sample at 1 µM
T4 construct: also called Tryp
T4 sequence (P01070 25-205): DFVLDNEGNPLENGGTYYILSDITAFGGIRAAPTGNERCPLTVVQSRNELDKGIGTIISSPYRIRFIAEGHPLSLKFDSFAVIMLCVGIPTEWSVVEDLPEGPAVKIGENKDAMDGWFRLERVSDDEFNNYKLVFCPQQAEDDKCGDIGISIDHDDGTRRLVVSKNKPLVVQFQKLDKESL
Text: To prepare the surface for the non-specific binding experiment, chicken egg white lysozyme and trypsin inhibitor from glycine max soybean were coupled manually to a series S CM5 chip with the surface density of 3000-5000 RU using the amine coupling kit according to the manufacture instructions.

[3] = target: T5, FLAG-tagged human DLL1 full length (human, UniProt O00548 1-723); assay: flow cytometry on HEK293 cells expressing human DLL1 (HEK293-huDLL1), PE anti-human secondary, control: secondary antibody only
T5 construct: also called human DLL1 on HEK293 cells
T5 sequence: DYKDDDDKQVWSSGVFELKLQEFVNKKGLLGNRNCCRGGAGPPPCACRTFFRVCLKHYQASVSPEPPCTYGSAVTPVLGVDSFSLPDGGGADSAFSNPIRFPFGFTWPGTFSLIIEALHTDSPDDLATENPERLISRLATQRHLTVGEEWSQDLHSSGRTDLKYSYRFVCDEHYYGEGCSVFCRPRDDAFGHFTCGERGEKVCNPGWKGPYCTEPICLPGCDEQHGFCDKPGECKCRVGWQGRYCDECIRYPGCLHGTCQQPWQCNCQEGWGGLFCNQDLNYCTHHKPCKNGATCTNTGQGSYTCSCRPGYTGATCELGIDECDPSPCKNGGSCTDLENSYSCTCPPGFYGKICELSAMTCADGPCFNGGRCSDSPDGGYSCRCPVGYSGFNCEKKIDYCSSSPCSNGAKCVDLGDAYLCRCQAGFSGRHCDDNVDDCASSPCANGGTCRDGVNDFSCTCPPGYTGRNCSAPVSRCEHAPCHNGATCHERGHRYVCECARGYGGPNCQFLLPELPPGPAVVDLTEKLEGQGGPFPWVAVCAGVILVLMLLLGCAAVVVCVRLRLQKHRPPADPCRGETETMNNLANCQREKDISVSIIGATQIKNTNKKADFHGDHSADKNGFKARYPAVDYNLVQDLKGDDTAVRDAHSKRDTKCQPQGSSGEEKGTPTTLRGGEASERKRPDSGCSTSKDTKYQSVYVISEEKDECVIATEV
Description: as §1

B1: DLL3#2/CD3#1 (bispecific antibody, human IgG1, kappa, lambda, L234A L235A)
chain 1: DIQMTQSPSAMSASVGDRVTITCRASQGISNYLAWFQQKPGKVPEPLIYAASSLQSGVPSRFSGSGSVTEFTLTISSLQPEDFATYYCLQHNSSPYTFGQGTKLEIKRTVAAPSVFIFPPSDEQLKSGTASVVCLLNNFYPREAKVQWKVDNALQSGNSQESVTEQDSKDSTYSLSSTLTLSKADYEKHKVYACEVTHQGLSSPVTKSFNRGECGGGGSEGKSSGSGSESKSTEGKSSGSGSESKSTGGGGSQVQLVQSGAEVKKPGASVKVSCKASGYTFTSYYMHWVRQAPGQGLEWMGIINPSGGSTSYAQKFQGRVTMTRDTSTSTVYMELSSLRSEDTAVYYCARGEAVGGNYYYYGMDVWGQGTTVTVSSASTKGPSVFPLAPSSKSTSGGTAALGCLVKDYFPEPVTVSWNSGALTSGVHTFPAVLQSSGLYSLSSVVTVPSSSLGTQTYICNVNHKPSNTKVDKRVEPKSCDKTHTCPPCPAPEAAGGPSVFLFPPKPKDTLMISRTPEVTCVVVDVSHEDPEVKFNWYVDGVEVHNAKTKPREEQYNSTYRVVSVLTVLHQDWLNGKEYKCKVSNKALPAPIEKTISKAKGQPREPQVYTLPPSREEMTKNQVSLWCLVKGFYPSDIAVEWESNGQPENNYKTTPPVLDSDGSFFLYSKLTVDKSRWQQGNVFSCSVMHEALHNHYTQKSLSLSPG
chain 2: EAVVTQEPSLTVSPGGTVTLTCRSSTGAVTTSNYANWVQEKPGQLPRGLIGGTNKRAPWVPARFSGSLLGGKAALTLSGAQPEDEAEYFCALWYSNLWVFGGGTKLTVLGQPKAAPSVTLFPPSSEELQANKATLVCLISDFYPGAVKVAWKADGSPVNTGVETTTPSKQSNNKYAASSYLSLTPEQWKSHRSYSCQVTHEGSTVEKTVAPAECSGGGGSEGKSSGSGSESKSTEGKSSGSGSESKSTGGGGSEVQLVESGGGLVQPGGSLKLSCAASGFTFNTYAMNWVRQAPGKGLEWVARIRSKYNNYATYYADSVKDRFTISRDDSKNTAYLQMNNLKTEDTAVYYCVRHGNFGNSYVSWFAYWGQGTLVTVSAASTKGPSVFPLAPSSKSTSGGTAALGCLVKDYFPEPVTVSWNSGALTSGVHTFPAVLQSSGLYSLSSVVTVPSSSLGTQTYICNVNHKPSNTKVDKRVEPKSCDKTHTCPPCPAPEAAGGPSVFLFPPKPKDTLMISRTPEVTCVVVDVSHEDPEVKFNWYVDGVEVHNAKTKPREEQYNSTYRVVSVLTVLHQDWLNGKEYKCKVSNKALPAPIEKTISKAKGQPREPQVYTLPPSREEMTKNQVSLSCAVKGFYPSDIAVEWESNGQPENNYKTTPPVLDSDGSFFLVSKLTVDKSRWQQGNVFSCSVMHEALHNRFTQKSLSLSPG
notes: Heterodimer of one DLL3 chain and one CD3 chain (scFab-Fc, knob-in-hole)
- binding result (EGF4+5): no binding (tested: 1.6 nM)
- Kd (Human CD3 E+G HuFc-6xHis): 3 nM
- binding result [1]: no binding (tested: 1.6 nM)
- Non-specific binding (RU) [2]: 2 RU
- binding result [3]: no binding (tested: 1.6 nM)

B2: DLL3#3/CD3#1 (bispecific antibody, human IgG1, kappa, lambda, L234A L235A)
chain 1: DIQMTQSPSAMSASVGDRVTITCRASQGISNYLVWFQQKPGKAPKRLIYAVSSLYSGVPSRFSGSGSGTEFTLTISSLQPEDFATYYCLQHDSYPYTFGQGTKLEIKRTVAAPSVFIFPPSDEQLKSGTASVVCLLNNFYPREAKVQWKVDNALQSGNSQESVTEQDSKDSTYSLSSTLTLSKADYEKHKVYACEVTHQGLSSPVTKSFNRGECGGGGSEGKSSGSGSESKSTEGKSSGSGSESKSTGGGGSQVQLVQSGAEVKKPGASVKVSCKASGYTFTSYYVHWVRQAPGQGLEWMVIINPGGGTTSYAQKFLGRVTMTRDTSTNTVYMELKSLRSEDTAVYYCARGEAVTGNYFYYGMDVWGQGTTVTVSSASTKGPSVFPLAPSSKSTSGGTAALGCLVKDYFPEPVTVSWNSGALTSGVHTFPAVLQSSGLYSLSSVVTVPSSSLGTQTYICNVNHKPSNTKVDKRVEPKSCDKTHTCPPCPAPEAAGGPSVFLFPPKPKDTLMISRTPEVTCVVVDVSHEDPEVKFNWYVDGVEVHNAKTKPREEQYNSTYRVVSVLTVLHQDWLNGKEYKCKVSNKALPAPIEKTISKAKGQPREPQVYTLPPSREEMTKNQVSLWCLVKGFYPSDIAVEWESNGQPENNYKTTPPVLDSDGSFFLYSKLTVDKSRWQQGNVFSCSVMHEALHNHYTQKSLSLSPG
chain 2: B1 chain 2
notes: as for B1
- binding result (EGF4+5): no binding (tested: 1.6 nM)
- Kd (Human CD3 E+G HuFc-6xHis): 2 nM
- binding result [1]: no binding (tested: 1.6 nM)
- Non-specific binding (RU) [2]: 85 RU
- binding result [3]: no binding (tested: 1.6 nM)
